{
  "source": "patent US20220041746A1",
  "about": "(Sanofi, published 2022)",
  "binders": {"B1": {"name": "anti-CD28cvn antigen binding domain (antibody, V domains shown)", "VH": "QVQLQESGPGLVKPSQTLSLTCTVSGFSLSDYGVHWVRQPPGKGLEWLGVIWAGGGTNYNPSLKSRKTISKDTSKNQVSLKLSSVTAADTAVYYCARDKGYSYYYSMDYWGQGTTVTVSS", "VL": "DIVLTQSPASLAVSPGQRATITCRASESVEYYVTSLMQWYQQKPGQPPKLLIFAASNVESGVPARFSGSGSGTDFTLTINPVEANDVANYYCQQSRKVPYTFGQGTKLEIK", "notes": "also called anti-CD28evn; conventional agonist, \"cvn\""}, "B2": {"name": "mAb2xCD28supxCD3mid IgG4 FALA (other)", "heavy 1": "QVQLVQSGAEVVKPGASVKVSCKASGYTFTSYYIHWVRQAPGQGLEWIGSIYPGNVNTNYAQKFQGRATLTVDTSISTAYMELSRLRSDDTAVYYCTRSHYGLDWNFDVWGKGTTVTVSSSQVQLVESGGGVVQPGRSLRLSCAASGFTFTKAWMHWVRQAPGKQLEWVAQIKDKSNSYATYYADSVKGRFTISRDDSKNTLYLQMNSLRAEDTAVYYCRGVYYALSPFDYWGQGTLVTVSSRTASTKGPSVFPLAPCSRSTSESTAALGCLVKDYFPEPVTVSWNSGALTSGVHTFPAVLQSSGLYSLSSVVTVPSSSLGTKTYTCNVDHKPSNTKVDKRVESKYGPPCPPCPAPEAAGGPSVFLFPPKPKDTLMISRTPEVTCVVVDVSQEDPEVQFNWYVDGVEVHNAKTKPREEQFNSTYRVVSVLTVLHQDWLNGKEYKCKVSNKGLPSSIEKTISKAKGQPREPQVCTLPPSQEEMTKNQVSLSCAVKGFYPSDIAVEWESNGQPENNYKTTPPVLDSDGSFFLVSKLTVDKSRWQEGNVFSCSVMHEALHNHYTQKSLSLSLG", "light 1": "DIVMTQTPLSLSVTPGQPASISCKSSQSLVHNNANTYLSWYLQKPGQSPQSLIYKVSNRFSGVPDRFSGSGSGTDFTLKISRVEAEDVGVYYCGQGTQYPFTFGSGTKVEIKGQPKAAPDIQMTQSPSSLSASVGDRVTITCQASQNIYVWLNWYQQKPGKAPKLLIYKASNLHTGVPSRFSGSGSGTDFTLTISSLQPEDIATYYCQQGQTYPYTFGQGTKLEIKTKGPSRTVAAPSVFIFPPSDEQLKSGTASVVCLLNNFYPREAKVQWKVDNALQSGNSQESVTEQDSKDSTYSLSSTLTLSKADYEKHKVYACEVTHQGLSSPVTKSFNRGEC", "heavy 2": "QVQLVQSGAEVVKPGASVKVSCKASGYTFTSYAMHWVKEAPGQRLEWIGYIYPGQGGTNYNQKFQGRATLTADTSASTAYMELSSLRSEDTAVYFCARTGGLRRAYFTYWGQGTLVTVSSASTKGPSVFPLAPCSRSTSESTAALGCLVKDYFPEPVTVSWNSGALTSGVHTFPAVLQSSGLYSLSSVVTVPSSSLGTKTYTCNVDHKPSNTKVDKRVESKYGPPCPPCPAPEAAGGPSVFLFPPKPKDTLMISRTPEVTCVVVDVSQEDPEVQFNWYVDGVEVHNAKTKPREEQFNSTYRVVSVLTVLHQDWLNGKEYKCKVSNKGLPSSIEKTISKAKGQPREPQVYTLPPCQEEMTKNQVSLWCLVKGFYPSDIAVEWESNGQPENNYKTTPPVLDSDGSFFLYSKLTVDKSRWQEGNVFSCSVMHEALHNHYTQKSLSLSLG", "light 2": "DIVLTQSPATLSLSPGERATISCRASQSVSSYGQGFMHWYQQKPGQPPRLLIYGASSRATGIPARFSGSGSGTDFTLTISPLEPEDFAVYYCQQNKEDPWTFGGGTKLEIKRTVAAPSVFIFPPSDEQLKSGTASVVCLLNNFYPREAKVQWKVDNALQSGNSQESVTEQDSKDSTYSLSSTLTLSKADYEKHKVYACEVTHQGLSSPVTKSFNRGEC", "notes": "also called CD38VH1×CD28sup×CD3mid IgG4 FALA"}, "B3": {"name": "mAb2xCD28supxCD3mid IgG1 NNSA (other)", "heavy 1": "QVQLVQSGAEVVKPGASVKVSCKASGYTFTSYYIHWVRQAPGQGLEWIGSIYPGNVNTNYAQKFQGRATLTVDTSISTAYMELSRLRSDDTAVYYCTRSHYGLDWNFDVWGKGTTVTVSSSQVQLVESGGGVVQPGRSLRLSCAASGFTFTKAWMHWVRQAPGKQLEWVAQIKDKSNSYATYYADSVKGRFTISRDDSKNTLYLQMNSLRAEDTAVYYCRGVYYALSPFDYWGQGTLVTVSSRTASTKGPSVFPLAPSSKSTSGGTAALGCLVKDYFPEPVTVSWNSGALTSGVHTFPAVLQSSGLYSLSSVVTVPSSSLGTQTYICNVNHKPSNTKVDKKVEPKSCDKTHTCPPCPAPELLGGPSVFLFPPKPKDTLMISRTPEVTCVVVDVSHEDPEVKFNWYVDGVEVHNAKTKPREEQYNNASRVVSVLTVLHQDWLNGKEYKCKVSNKALPAPIEKTISKAKGQPREPQVCTLPPSRDELTKNQVSLSCAVKGFYPSDIAVEWESNGQPENNYKTTPPVLDSDGSFFLVSKLTVDKSRWQQGNVFSCSVMHEALHNHYTQKSLSLSPG", "light 1": "B2 light 1", "heavy 2": "QVQLVQSGAEVVKPGASVKVSCKASGYTFTSYAMHWVKEAPGQRLEWIGYIYPGQGGTNYNQKFQGRATLTADTSASTAYMELSSLRSEDTAVYFCARTGGLRRAYFTYWGQGTLVTVSSASTKGPSVFPLAPSSKSTSGGTAALGCLVKDYFPEPVTVSWNSGALTSGVHTFPAVLQSSGLYSLSSVVTVPSSSLGTQTYICNVNHKPSNTKVDKKVEPKSCDKTHTCPPCPAPELLGGPSVFLFPPKPKDTLMISRTPEVTCVVVDVSHEDPEVKFNWYVDGVEVHNAKTKPREEQYNNASRVVSVLTVLHQDWLNGKEYKCKVSNKALPAPIEKTISKAKGQPREPQVYTLPPCRDELTKNQVSLWCLVKGFYPSDIAVEWESNGQPENNYKTTPPVLDSDGSFFLYSKLTVDKSRWQQGNVFSCSVMHEALHNHYTQKSLSLSPG", "light 2": "B2 light 2", "notes": "also called CD38VH1×CD28sup×CD3mid IgG1 NNAS"}, "B4": {"name": "anti-CD28sup antigen binding domain (antibody, V domains shown)", "VH": "QVQLVQSGAEVVKPGASVKVSCKASGYTFTSYYIHWVRQAPGQGLEWIGSIYPGNVNTNYAQKFQGRATLTVDTSISTAYMELSRLRSDDTAVYYCTRSHYGLDWNFDVWGKGTTVTVSS", "VL": "DIQMTQSPSSLSASVGDRVTITCQASQNIYVWLNWYQQKPGKAPKLLIYKASNLHTGVPSRFSGSGSGTDFTLTISSLQPEDIATYYCQQGQTYPYTFGQGTKLEIK", "notes": "also called super agonist, \"sup\""}, "B5": {"name": "mAb4 (antibody, human IgG1, kappa, V domains shown)", "VH": "QVQLVQSGAEVVKSGASVKVSCKASGYTFTSFNMHWVKEAPGQGLEWIGYIYPGNGGTNYNQKFQGRATLTADTSASTAYMEISSLRSEDTAVYFCARTGGLRRAYFTYWGQGTLVTVSS", "VL": "DIVLTQSPATLSLSPGERATISCRASESVDSYGNGFMHWYQQKPGQPPRLLIYLASSRATGIPARFSGSGSGTDFTLTISPLEPEDFAVYYCQQNKEDPWTFGGGTKLEIKR", "notes": "also called antiCD38_C2-CD38-1_VH5-VL3"}},
  "key": {"[1]": {"target": "human CD28 (SPR of Example 4) (human, UniProt P10747 19-152, limits assumed)", "assay": "SPR, mono-, bi- and trispecific formats (FIG. 5)"}, "[2]": {"target": "human CD38 (Cambridge Biologics LLC Cat #03-01-0369) (human, UniProt P28907 43-300)", "assay": "ELISA on coated hCD38-His", "protocol": "The binding properties of the purified antibodies were analyzed either using ELISA or SPR methods. For ELISA, corresponding antigens for each binding site in the trispecific binding protein were used to coat a 96-well Immuno Plate (Nunc 439454, Thermo Fisher Scientific) overnight at 4° C. using 2 μg/ml each antigen m PBS(pH7.4). The coated plate was blocked using 5% skim milk 12% BSA in PBS for one hour at RT, followed by washing with PBS+[…] three times (Aqua Max 400, Molecular Devices). Serial dilution of antibodies (trispecific and control Abs) were prepared and added onto the ELISA plates (100 μl/well in duplicate), incubated at RT for one hour, followed by washing 5 times with PBS+0.25% Tween 20.\nThe reaction was terminated by adding 50 μl 1M H₂SO₄, and OD₄₅₀ was measured using SpectraMax M5 (Molecular Devices) and analyzed using SoltMax Pro6.3 software (Molecular Devices). The final data was transferred to GraphPad Prism software (GraphPad Software, CA. USA), and plotted as shown. EC50 was calculated using the same software."}, "[3]": {"target": "T1, human CD38 expressed on the cell surface (human, UniProt P28907 1-300)", "T1 construct": "whole, on cells; also called hCD38-expressing cells; huCD38", "assay": "flow cytometry (column FACS EC50 nM, hu)", "protocol": "(§1) The recombinant cell line was described by J. Deckket et al. 2014 Clin Cancer Res 20:4574-4583. […] Antibody binding was evaluated after centrifugation and resuspension of cells by adding 200 μL/well PBS 1% BSA and read using Guava® easvCyte™ 8HT Flow Cytometry System. Apparent KD and EC50 values were estimated using BIOST@T-BINDING and BIOST@T-SPEED software, respectively."}, "[4]": {"target": "T2, hCD38-his (SEQ ID NO: 2) (human, UniProt P28907 45-300)", "T2 construct": "His-tagged soluble protein derived from isoform A; also called human CD38-histag; hCD38::Histag", "assay": "ELISA (column ELISA EC50 nM, hu)"}, "[5]": {"target": "T3, cynomolgus monkey CD38 expressed on the cell surface (cynomolgus monkey, UniProt Q5VAN0 1-301)", "T3 construct": "whole, on cells; also called cCD38-expressing cells", "assay": "flow cytometry (column FACS EC50 nM, cyno)", "protocol": "as §1"}, "[6]": {"target": "T4, cCD38-his (SEQ ID NO: 4) (cynomolgus monkey, UniProt Q5VAN0 46-301)", "T4 construct": "His-tagged soluble protein; also called cyno CD38-histag; cynoCD38::Histag", "assay": "ELISA (column ELISA EC50 nM, cyno)"}, "[7]": {"target": "T2, hCD38-his (SEQ ID NO: 2)", "assay": "SPR, mAb captured via anti-human Fc, soluble CD38-his injected", "protocol": "(§2) The binding properties of the anti-huCD38 mabs were evaluated using a BIAcore 2000 (BIAcore Inc., Uppsala, Ni). […] The surface was regenerated between injections using 30 μL of 50 mM NaOH-1 M NaCl. Individual sensorgrams wore analyzed using BIAsimulation software."}, "[8]": {"target": "T4, cCD38-his (SEQ ID NO: 4)", "assay": "SPR, mAb captured via anti-human Fc, soluble CD38-his injected", "protocol": "as §2"}, "[9]": {"target": "T3, cynomolgus monkey CD38 expressed on the …", "assay": "flow cytometry on preB::300.19 cells, apparent KD", "protocol": "as §1"}, "[10]": {"target": "T1, human CD38 expressed on the cell surface", "assay": "flow cytometry on preB::300.19 cells, apparent KD", "protocol": "as §1"}},
  "data": [
    {"binder": "B1", "values": [
      {"measurement": "binding result", "setting": "[1]", "result": "binds"}
    ]},
    {"binder": "B2", "values": [
      {"measurement": "binding result", "setting": "[2]", "result": "binds"}
    ]},
    {"binder": "B3", "values": [
      {"measurement": "binding result", "setting": "[2]", "result": "binds"}
    ]},
    {"binder": "B4", "values": [
      {"measurement": "binding result", "setting": "[1]", "result": "binds"}
    ]},
    {"binder": "B5", "values": [
      {"measurement": "EC50", "setting": "[3]", "result": 0.55, "unit": "nM"},
      {"measurement": "EC50", "setting": "[4]", "result": 0.16, "unit": "nM"},
      {"measurement": "EC50", "setting": "[5]", "result": 1.15, "unit": "nM"},
      {"measurement": "EC50", "setting": "[6]", "result": 0.17, "unit": "nM"},
      {"measurement": "Kd", "setting": "[7]", "result": 0.822, "unit": "nM"},
      {"measurement": "koff", "setting": "[7]", "result": 0.000529, "unit": "s⁻¹"},
      {"measurement": "Kd", "setting": "[8]", "result": 1.14, "unit": "nM"},
      {"measurement": "koff", "setting": "[8]", "result": 0.000201, "unit": "s⁻¹"},
      {"measurement": "Kd", "setting": "[9]", "result": 1.15, "unit": "nM"},
      {"measurement": "Kd", "setting": "[10]", "result": 0.33, "unit": "nM"}
    ]}
  ]
}
